The results in this text go back to PMC12319226 (Frontiers in Bioinformatics, 2025).

Numbering of substitutions follows the chain as printed.

Common to all, as to test: BLI
Common to all, as to details: both partners purified

The target of one assay is T1, fHbp m001941 (Neisseria meningitidis fHbp v3.28, …, chimera).
T1 chain: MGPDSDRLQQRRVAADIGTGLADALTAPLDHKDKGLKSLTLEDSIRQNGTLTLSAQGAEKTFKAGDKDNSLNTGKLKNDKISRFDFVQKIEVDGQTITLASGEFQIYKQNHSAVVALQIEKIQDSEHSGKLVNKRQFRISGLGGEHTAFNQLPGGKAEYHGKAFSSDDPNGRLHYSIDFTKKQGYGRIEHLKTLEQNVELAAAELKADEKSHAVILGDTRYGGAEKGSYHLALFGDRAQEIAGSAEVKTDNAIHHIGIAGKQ

A further assay has as its target T2, fHbp m001832 (Neisseria meningitidis fHbp v3.28, …, chimera).
T2 chain: T1 chain with G223S, T249S, A252G

In another assay the target is T3, fHbp m001822 (Neisseria meningitidis, engineered fHbp …, point mutant).
T3 chain: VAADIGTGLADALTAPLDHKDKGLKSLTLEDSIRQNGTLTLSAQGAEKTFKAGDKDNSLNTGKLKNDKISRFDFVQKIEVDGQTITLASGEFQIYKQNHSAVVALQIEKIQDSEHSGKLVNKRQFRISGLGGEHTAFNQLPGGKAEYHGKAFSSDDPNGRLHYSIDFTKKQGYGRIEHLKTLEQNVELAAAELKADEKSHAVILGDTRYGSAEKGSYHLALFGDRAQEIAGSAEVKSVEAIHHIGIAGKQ

In the next assay the target is T4, fHbp m002334 (Neisseria meningitidis, engineered fHbp …, chimera).
T4 chain: T3 chain with G210N, S237T

For a further assay, the target named is T5, fHbp m001529 (Neisseria meningitidis, fHbp …, point mutant).
T5 chain: T1 chain with Y221L, G222N, G223Q, D250V, N251V, A252G

Assay [1] addresses T6, factor H binding protein variant 1.1 (Neisseria meningitidis serogroup B …, UniProt Q9JXV4).
T6 construct: also called fHbp v1.1; v1.1 Control (0001)

B1: mAb 1E6 (human) (antibody, V domains shown)
VH: EVQLVQSGAEVKKPGSSVKVSCKASGGTVIDYPITWVRQAPGQGLEWVGGFVPLFRTSNYGQKFQGRVTITADKSTSTASMELNSLTSEDTAIYYCARGDTAMGPFDYWGQGTLVTVSS
VL: SYVLTQPPSLSVAPGKTATLTCGGNNIAGKTVHWYQQRPGQAPVLVISYDSDRPSGIPERFSGSNSANTATLTISRVEAGDEADYYCQVWDRNSDHWVFGGGTKLTVL
notes: source: Expi293, purified (MabSelect SuRe, SEC); copies: 2 + 2
Take B1: the Kd (commonly a measure of binding affinity in units of concentration) with fHbp m001941 is 0.464 nM; with fHbp m001832 it was 0.435 nM; with fHbp m001822, 0.455 nM; with fHbp m002334 it was 0.844 nM; with fHbp m001529, 0.338 nM. In addition, the dissociation rate constant (koff) (usually a measure of how fast the partners let go of each other) in the assay with fHbp m001941 worked out at 0.00015 s⁻¹; with fHbp m001832 it was 0.00016 s⁻¹; in the assay with fHbp m001822, 0.00017 s⁻¹; with fHbp m002334, 0.000101 s⁻¹; with fHbp m001529, 0.000156 s⁻¹. The kon – broadly, the rate constant with which the complex forms – in the assay with fHbp m001941 stood at 323000 ± 2300 M⁻¹ s⁻¹; in the assay with fHbp m001832, 367800 ± 1240 M⁻¹ s⁻¹; with fHbp m001822 it was 372900 ± 2610 M⁻¹ s⁻¹; with fHbp m002334, 119300 ± 930 M⁻¹ s⁻¹; with fHbp m001529, 460900 ± 3880 M⁻¹ s⁻¹.

B2: chimeric antibody h12C1 (antibody, V domains shown)
VH: QVQLQESGPELVKPGASVKISCKASGYSFSDYNMSWVKQSNGKSLEWIGIIDPKYGTINYNQKFKGKATLTVDQASSTAYMQLNSLTSEDSAVYYCVRDYYGSSYFDYWGQGTTLTVSS
VL: DIVLTQSPSSIYASLGERVTLTCKASQDIHNYLNWFQQKPGKSPKTLIYRANRLVDGVPSRFSGGGSGQDYSLTISSLEFEDIGIYYCLQYDEFPPTFGGGTRLEIK
notes: also called humanized 12C1; source: Expi293, purified (MabSelect SuRe, SEC); copies: 2 + 2
In assay [1], B2 displayed a Kd of 0.391 nM, an off-rate constant (koff) of 0.000273 s⁻¹ and an association rate constant (kon) of 697400 ± 1920 M⁻¹ s⁻¹.
